Test results published in patent US7033999B2, “Nitrosated and nitrosylated heme proteins” (Brigham and Women's Hospital, priority 1991, dated 2006).
Where two headings read alike, the source gives them in different places.

How the values were obtained:
fibrinogen = molecular target: T1, fibrinogen (Homo sapiens, UniProt P02671+P02675+P02679); assay: Binding of t-PA and S—NO-t-PA to fibrinogen-coated wells (ELISA)
T1 construct: purchased Enzyme Research Laboratories, South Bend, Ind
T1 sequence (P02671 20-629 limits assumed): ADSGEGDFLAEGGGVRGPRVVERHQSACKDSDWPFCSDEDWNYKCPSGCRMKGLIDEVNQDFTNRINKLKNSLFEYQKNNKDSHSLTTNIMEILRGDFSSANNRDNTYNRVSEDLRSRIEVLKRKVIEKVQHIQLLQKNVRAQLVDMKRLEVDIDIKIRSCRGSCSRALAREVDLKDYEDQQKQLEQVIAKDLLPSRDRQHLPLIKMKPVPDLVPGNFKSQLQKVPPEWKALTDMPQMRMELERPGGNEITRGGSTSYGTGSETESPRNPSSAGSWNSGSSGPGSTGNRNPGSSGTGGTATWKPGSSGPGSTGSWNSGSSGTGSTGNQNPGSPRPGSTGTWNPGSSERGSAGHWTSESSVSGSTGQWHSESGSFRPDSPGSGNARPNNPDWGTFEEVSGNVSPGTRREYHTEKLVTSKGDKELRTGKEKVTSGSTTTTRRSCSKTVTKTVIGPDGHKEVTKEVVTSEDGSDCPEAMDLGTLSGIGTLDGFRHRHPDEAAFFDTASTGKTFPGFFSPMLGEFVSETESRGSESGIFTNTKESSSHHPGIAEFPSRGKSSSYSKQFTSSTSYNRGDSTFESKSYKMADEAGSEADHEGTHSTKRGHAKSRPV
T1 sequence (P02675 31-491): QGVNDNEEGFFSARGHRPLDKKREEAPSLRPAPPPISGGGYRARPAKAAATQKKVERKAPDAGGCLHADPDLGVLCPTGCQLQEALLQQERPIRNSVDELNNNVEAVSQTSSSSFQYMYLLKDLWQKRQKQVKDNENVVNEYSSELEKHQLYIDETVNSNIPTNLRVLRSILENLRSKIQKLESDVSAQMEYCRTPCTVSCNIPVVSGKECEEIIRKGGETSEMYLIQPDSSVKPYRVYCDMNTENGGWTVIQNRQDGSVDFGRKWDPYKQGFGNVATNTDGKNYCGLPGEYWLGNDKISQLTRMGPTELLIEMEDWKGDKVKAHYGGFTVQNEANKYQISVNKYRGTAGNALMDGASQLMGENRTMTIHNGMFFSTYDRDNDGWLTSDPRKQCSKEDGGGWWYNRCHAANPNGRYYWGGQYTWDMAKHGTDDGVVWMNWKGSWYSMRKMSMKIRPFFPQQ
T1 sequence (P02679 27-433 limits assumed): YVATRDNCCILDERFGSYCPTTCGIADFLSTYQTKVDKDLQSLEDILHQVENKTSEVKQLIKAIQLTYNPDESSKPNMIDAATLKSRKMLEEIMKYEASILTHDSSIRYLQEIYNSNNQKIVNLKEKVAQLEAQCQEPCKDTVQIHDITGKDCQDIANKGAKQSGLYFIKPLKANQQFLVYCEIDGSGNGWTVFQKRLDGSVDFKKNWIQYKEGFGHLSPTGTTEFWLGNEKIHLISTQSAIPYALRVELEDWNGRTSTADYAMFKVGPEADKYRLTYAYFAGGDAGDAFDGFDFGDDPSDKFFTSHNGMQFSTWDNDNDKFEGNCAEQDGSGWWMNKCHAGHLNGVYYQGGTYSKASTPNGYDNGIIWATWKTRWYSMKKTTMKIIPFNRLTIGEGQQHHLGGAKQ
Method: The binding of t-PA and S——NO-t-PA to fibrinogen was measured using polystyrene microliter wells (flat-bottom, high binding 96-well EIA plates, cat. #3590, Costar, Cambridge, Mass.). Wells were coated with fibrinogen (0.08 ug/ul) and the remaining binding sites with 2% bovine serum albumin. Quantification of t-PA binding was determined using a Horse-Radish Peroxidase linked sheep antimurine antibody in a colorimetric assay in the presence of O-phenylenediamine, 0.014% H2O2. Color change was measured spectrophotometrically with a Dynatech MR500 Card Reader (Dynatech, Chantilly, Va.) at 490 nm.
Binding of t-PA is reversible and specific, and saturates at 1500–3000 nM; at saturation, 18 ng of t-PA are bound per well ([…] moles t-PA per mole of fibrinogen) with an estimated KDin the range of 15–650 nM. Binding of t-PA and S—NO-t-PA was quantified by ELISA over the concentration range of 150–1500 nM using a mixture containing six murine monoclonal anti-t-PA antibodies.

glu-plasminogen = molecular target: T2, glu-plasminogen (Homo sapiens, UniProt P00747); assay: Coupled enzyme assay: activation of glu-plasminogen (S2251), with and without fibrinogen; format: biochemical; conditions: for Km / kcat: GLU-plasminogen (S2251) activation
T2 construct: Glu-plasminogen was purified from fresh frozen plasma; from tissue; host or cells: fresh frozen plasma (lysine-Sepharose, then benzamidine-Sepharose)
Method: Glu-plasminogen was purified from fresh frozen plasma thawed at 37° C. using a modification of the method of Deutsch and Mertz (Deutsch et al., Science 170:1095–1096 (1970), herein incorporated by reference). Plasma was passed over a lysine-Sepharose column and the column washed with 0.3 M sodium phosphate, pH 7.4, 3 mM EDTA. Plasminogen was eluted from the column with 0.2 M epsilon-aminocaproic acid, 3 mM EDTA, pH 7.4 Contaminant plasmin was removed by passing the eluted column over benzamidine sepharose 2B. The plasminogen obtained was subsequently dialyzed before use against 10 mM sodium phosphate, pH 7.4, 0.15 M NaCl.
In the coupled enzyme assay, t-PA and S—NO-t-PA activities were assayed using the […] S2251. In selected experiments, fibrinogen stimulation of enzymatic activity was assessed at a fibrinogen concentrations of 1 mg./ml. Substrate hydrolysis was measured spectrophotometrically with a Dynatech MR 5000 Card Reader (Dynatech, Chantilly, Va.) in TBS, pH 7.4, at 25° C. Initial reaction velocity was determined from the slope of the plot of absorbance (at 405 nm)/time vs. time (Randy, M. Biochim. Biophysica Acta 704:461–469 (1982)) using glu-plasminogen concentrations ranging from 0.1–10 μM at an S2251 concentrations of 0.8 mM. Kinetic parameters were determined from initial rates by double reciprocal plot analysis.

gel-filtered platelets = assay: Platelet aggregation (nephelometric aggregometry); format: cell-based, human; conditions: for % Normalized Extent Aggregation: Thrombin (0.024 U/ml), (150 μM) as printed, mean ±S.D.

T2 sequence (P00747 20-810 limits assumed): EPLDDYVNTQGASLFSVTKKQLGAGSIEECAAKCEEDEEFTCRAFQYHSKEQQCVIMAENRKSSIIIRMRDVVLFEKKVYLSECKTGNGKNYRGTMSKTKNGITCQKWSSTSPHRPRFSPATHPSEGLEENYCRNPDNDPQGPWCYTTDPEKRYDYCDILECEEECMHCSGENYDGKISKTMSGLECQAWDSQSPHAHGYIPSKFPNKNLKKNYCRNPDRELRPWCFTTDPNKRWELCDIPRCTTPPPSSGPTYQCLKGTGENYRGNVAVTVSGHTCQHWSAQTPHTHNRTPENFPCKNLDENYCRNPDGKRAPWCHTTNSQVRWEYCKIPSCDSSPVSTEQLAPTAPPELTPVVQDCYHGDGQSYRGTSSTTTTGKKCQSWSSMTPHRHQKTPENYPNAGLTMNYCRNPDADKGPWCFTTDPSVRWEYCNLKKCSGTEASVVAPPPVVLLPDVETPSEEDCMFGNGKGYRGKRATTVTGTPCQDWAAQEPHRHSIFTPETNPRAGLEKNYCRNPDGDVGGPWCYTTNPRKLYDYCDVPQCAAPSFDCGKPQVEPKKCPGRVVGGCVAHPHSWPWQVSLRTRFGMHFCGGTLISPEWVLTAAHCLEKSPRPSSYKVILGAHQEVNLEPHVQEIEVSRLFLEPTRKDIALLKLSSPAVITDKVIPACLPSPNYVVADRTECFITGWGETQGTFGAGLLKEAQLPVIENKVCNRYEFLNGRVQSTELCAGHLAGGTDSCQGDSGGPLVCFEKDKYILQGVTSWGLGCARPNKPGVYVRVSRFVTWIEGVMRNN

Row | Kd (fibrinogen; Scatchard analysis, read-out: estimated apparent DD for surface-bound fibrinogen) [nM] | binding isotherm compared with t-PA (fibrinogen; two-way ANOVA) | fibrinogen stimulation greater than t-PA (glu-plasminogen; 0.1 μM plasminogen, fibrinogen 1 mg./ml) [fold] | degree of fibrinogen stimulation compared with wild type t-PA (glu-plasminogen; physiologic (1 μM) plasminogen) | moles t-PA per mole of fibrinogen at saturation (fibrinogen; at saturation) | t-PA bound per well at saturation (fibrinogen; at saturation) [ng] | concentration at which binding saturates (fibrinogen; fibrinogen-coated wells) [nM] | Kd (fibrinogen; fibrinogen-coated wells, read-out: estimated KD of binding to fibrinogen) [nM] | Substance | Km (glu-plasminogen) [µM] | kcat (glu-plasminogen) [s⁻¹] | catalytic efficiency greater than that of native t-PA (glu-plasminogen; plasminogen activation) [%] | concentrations at which inhibition of platelet aggregation was demonstrable (gel-filtered platelets; ADP (5 μM) or thrombin (0.024 U/ml)) [nM] | % Normalized Extent Aggregation (gel-filtered platelets) [%]
1 | 450 | not significantly different | 3.5 | equivalent |  |  |  |  | S—NO-t-PA: derived from the nitrosylation of tissue-type plasminogen activator (t-PA) | 3.8 | 0.262 | 23 | 15 to 150 | 0.73 ± 0.28
2 |  |  |  |  | 0105 moles t-PA per mole of fibrinogen | 18 | 1500 to 3000 | 15 to 650 | t-PA: tissue-type plasminogen activator, provided by Genentech | 3.5 | 0.200 |  |  | 0.90 ± 0.15
